{"source": "paper PMC6504076", "about": "“An in vivo half-life extended prolactin receptor antagonist can prevent STAT5 phosphorylation” (PLoS ONE, 2019)", "key": {"[1]": {"target": "mouse serum albumin (mouse) (UniProt P07724)", "sequence (P07724 25-608)": "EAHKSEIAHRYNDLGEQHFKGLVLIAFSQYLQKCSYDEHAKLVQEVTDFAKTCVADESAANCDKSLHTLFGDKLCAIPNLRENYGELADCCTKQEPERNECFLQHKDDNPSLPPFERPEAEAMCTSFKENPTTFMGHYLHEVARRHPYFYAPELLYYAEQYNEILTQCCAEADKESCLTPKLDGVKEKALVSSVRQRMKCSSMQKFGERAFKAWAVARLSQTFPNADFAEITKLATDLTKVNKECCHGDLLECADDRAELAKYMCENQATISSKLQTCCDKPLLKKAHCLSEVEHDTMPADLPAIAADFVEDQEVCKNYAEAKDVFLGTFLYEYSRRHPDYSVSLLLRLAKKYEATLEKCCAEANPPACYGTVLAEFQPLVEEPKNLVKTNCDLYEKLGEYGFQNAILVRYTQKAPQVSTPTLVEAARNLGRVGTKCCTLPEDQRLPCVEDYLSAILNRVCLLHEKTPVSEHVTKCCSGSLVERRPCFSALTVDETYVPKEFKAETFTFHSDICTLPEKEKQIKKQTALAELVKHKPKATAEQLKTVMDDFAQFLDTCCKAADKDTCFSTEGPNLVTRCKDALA", "assay": "SPR; Biacore 3000; mouse serum albumin immobilized on CM5 chip (approx. 800 RU); dilution series of ABD-PrlRA injected; 25°C, 40 μl/min; 1:1 Langmuir model"}, "[2]": {"target": "prolactin receptor (PrlR), extracellular domain (UniProt P16471)", "assay": "SPR; Biacore 3000; PrlR immobilized on CM5 chip (approx. 300 RU); dilution series of analyte injected; 25°C, 40 μl/min; PBS with 0.05% Tween-20; 1:1 Langmuir model"}, "[3]": {"target": "prolactin receptor (PrlR), extracellular domain (UniProt P16471)", "assay": "SPR; Biacore 3000; extracellular domain of PrlR immobilized; ABD-PrlRA dilution series with HSA added to 400 nM, incubated 4 h at 4°C; PBS with 0.05% Tween-20 and HSA as running buffer; 25°C, 40 μl/min; 1:1 Langmuir model (called an approximation)"}, "[4]": {"target": "prolactin receptor (PrlR), extracellular domain (UniProt P16471)", "assay": "SPR; Biacore 3000; extracellular domain of PrlR immobilized; ABD-PrlRA dilution series with HSA added to 400 nM, incubated 4 h at 4°C; PBS with 0.05% Tween-20 and HSA as running buffer; 25°C, 40 μl/min; 1:1 Langmuir model (called an approximation)", "remark": "listed apart in the source"}, "[5]": {"target": "T1, prolactin receptor (PrlR), extracellular domain (UniProt P16471 25-234)", "T1 construct": "prolactin receptor, extracellular domain, from Sino Biological; No catalogue number printed; source: bought: Sino Biological", "T1 sequence (looked up)": "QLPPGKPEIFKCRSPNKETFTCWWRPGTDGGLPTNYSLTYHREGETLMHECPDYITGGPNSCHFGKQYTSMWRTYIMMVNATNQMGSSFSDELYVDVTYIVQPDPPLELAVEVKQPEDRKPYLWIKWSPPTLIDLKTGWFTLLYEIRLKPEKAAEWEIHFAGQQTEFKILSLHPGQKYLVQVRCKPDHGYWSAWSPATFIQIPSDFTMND", "assay": "SPR; Biacore 3000; PrlR immobilized on CM5 chip (approx. 300 RU); dilution series of analyte injected; 25°C, 40 μl/min; PBS with 0.05% Tween-20; 1:1 Langmuir model", "conditions": "both partners purified"}, "[6]": {"target": "T1, prolactin receptor (PrlR), …", "assay": "SPR; Biacore 3000; PrlR immobilized on CM5 chip (approx. 300 RU); dilution series of analyte injected; 25°C, 40 μl/min; PBS with 0.05% Tween-20; 1:1 Langmuir model", "conditions": "both partners purified", "remark": "listed apart in the source"}}, "data": [{"molecule": "ABD-PrlRA (fusion of an N-terminal albumin binding domain ABD035 and the prolactin receptor antagonist PrlRA) (from UniProt P01236 29-227)", "values": [{"measurement": "Kd", "setting": "[1]", "result": 0.38, "unit": "nM"}, {"measurement": "koff", "setting": "[1]", "result": 0.0012, "unit": "s⁻¹"}, {"measurement": "kon", "setting": "[1]", "result": "3.1e+06", "unit": "M⁻¹ s⁻¹"}, {"measurement": "Kd", "setting": "[2]", "result": 2.3, "unit": "nM"}, {"measurement": "koff", "setting": "[2]", "result": 0.00074, "unit": "s⁻¹"}, {"measurement": "kon", "setting": "[2]", "result": 330000, "unit": "M⁻¹ s⁻¹"}]}, {"molecule": "complex of HSA and ABD-PrlRA (from UniProt P02768 25-609; P01236 29-227)", "values": [{"measurement": "Kd", "setting": "[3]", "result": 23, "unit": "nM"}, {"measurement": "Kd", "setting": "[4]", "result": 21, "unit": "nM"}, {"measurement": "koff", "setting": "[4]", "result": 0.00078, "unit": "s⁻¹"}, {"measurement": "kon", "setting": "[4]", "result": 39000, "unit": "M⁻¹ s⁻¹"}]}, {"molecule": "Prolactin (Prl*), commercially obtained (ligand, UniProt P01236 29-227, looked up, prolactin from Sino Biological; No catalogue number printed; source: bought: Sino Biological) LPICPGGAARCQVTLRDLFDRAVVLSHYIHNLSSEMFSEFDKRYTHGRGFITKAINSCHTSSLATPEDKEQAQQMNQKDFLSLIVSILRSWNEPLYHLVTEVRGMQEAPEAILSKAVEIEEQTKRLLEGMELIVSQVHPETKENEIYPVWSGLPSLQMADEESRLSAYYNLLHCLRRDSHKIDNYLKLLKCRIIHNNNC", "values": [{"measurement": "Kd", "setting": "[5]", "result": "23 ± 4", "unit": "nM"}]}, {"molecule": "prolactin (Prl), produced in house (ligand, human, prolactin, human; the Prl gene itself is not separately called human; also called in house produced Prl) MGSSLPICPGGAARCQVTLRDLFDRAVVLSHYIHNLSSEMFSEFDKRYTHGRGFITKAINSCHTSSLATPEDKEQAQQMNQKDFLSLIVSILRSWNEPLYHLVTEVRGMQEAPEAILSKAVEIEEQTKRLLEGMELIVSQVHPETKENEIYPVWSGLPSLQMADEESRLSAYYNLLHCLRRDSHKIDNYLKLLKCRIIHNNNC", "values": [{"measurement": "Kd", "setting": "[6]", "result": "8.4 ± 0.2", "unit": "nM"}, {"measurement": "koff", "setting": "[6]", "result": 0.0012, "unit": "s⁻¹"}, {"measurement": "kon", "setting": "[6]", "result": 140000, "unit": "M⁻¹ s⁻¹"}]}, {"molecule": "prolactin receptor antagonist PrlRA (ligand, human) MGSSRSQVTLRDLFDRAVVLSHYIHNLASEMFSEFDKRYTHGRGFITKAINSCHTSSLATPEDKEQALQMNQKDFLSLIVSILRSWNEPLYHLVTEVRGMQEAPEAILSKAVEIEEQTKRLLERMELIVSQVHPETKENEIYPVWSGLPSLQMADEESRLSAYYNLLHCLRRDSHKIDNYLKLLRCRIIHNNNC", "values": [{"measurement": "Kd", "setting": "[6]", "result": "3.4 ± 0.5", "unit": "nM"}, {"measurement": "koff", "setting": "[6]", "result": 0.00088, "unit": "s⁻¹"}, {"measurement": "kon", "setting": "[6]", "result": 260000, "unit": "M⁻¹ s⁻¹"}]}]}
